{"source": "patent US20250075002A1", "binders": {"B1": {"name": "huBG219P-E39-AF (antibody, human IgG1, V domains shown)", "VH": "EVQLLESGGGLVQPGGSLRLSCAASGFTFNDYIMSWVRQAPGKGLEWVATVSSGGDNTYYPDSVKGRFTISRDNSKNTLYLQMNSLRAEDTAVYYCTRYGGLGAMDYWGQGTLVTVSS", "VL": "DIQMTQSPSSLSASVGDRVTITCRASGNIHNYLTWYQQKPGKAPKLLIYNAKTLASGVPSRFSGSGSGTDFTLTISSLQPEDFATYYCQHFWSVPYTFGQGTKLEIK", "modifications": "afucosylated Fc glycan (-AF; expressed with 2F-peracetyl-fucose)"}, "B2": {"name": "MUC1 5F3-hFc-AF (antibody, V domains shown)", "VH": "DVQVQESGPDLVKPSQSLSLTCTVTGHSITRGSSWHWIRQFPGNKLEWMGYIHYGGGTSYNPSLKSRISITRDTSKNQFFLQLNSVTTEDTATFFCARYSYDITYRWFFDVWGAGTTVIVSS", "VL": "DILLTQSPAILSVSPGERVSFSCRASQNIGTSIHWYQQRKNGSPRLLIKYASESISGIPSRFSGSGSGTDFTLSINSVESEDMADYYCQQNNNWPLTFGAGTKLELK"}}, "molecular_target": "Human MUC1 (full length), on cells (human) (UniProt P15941)", "sequence (P15941 24-1255 limits assumed)": "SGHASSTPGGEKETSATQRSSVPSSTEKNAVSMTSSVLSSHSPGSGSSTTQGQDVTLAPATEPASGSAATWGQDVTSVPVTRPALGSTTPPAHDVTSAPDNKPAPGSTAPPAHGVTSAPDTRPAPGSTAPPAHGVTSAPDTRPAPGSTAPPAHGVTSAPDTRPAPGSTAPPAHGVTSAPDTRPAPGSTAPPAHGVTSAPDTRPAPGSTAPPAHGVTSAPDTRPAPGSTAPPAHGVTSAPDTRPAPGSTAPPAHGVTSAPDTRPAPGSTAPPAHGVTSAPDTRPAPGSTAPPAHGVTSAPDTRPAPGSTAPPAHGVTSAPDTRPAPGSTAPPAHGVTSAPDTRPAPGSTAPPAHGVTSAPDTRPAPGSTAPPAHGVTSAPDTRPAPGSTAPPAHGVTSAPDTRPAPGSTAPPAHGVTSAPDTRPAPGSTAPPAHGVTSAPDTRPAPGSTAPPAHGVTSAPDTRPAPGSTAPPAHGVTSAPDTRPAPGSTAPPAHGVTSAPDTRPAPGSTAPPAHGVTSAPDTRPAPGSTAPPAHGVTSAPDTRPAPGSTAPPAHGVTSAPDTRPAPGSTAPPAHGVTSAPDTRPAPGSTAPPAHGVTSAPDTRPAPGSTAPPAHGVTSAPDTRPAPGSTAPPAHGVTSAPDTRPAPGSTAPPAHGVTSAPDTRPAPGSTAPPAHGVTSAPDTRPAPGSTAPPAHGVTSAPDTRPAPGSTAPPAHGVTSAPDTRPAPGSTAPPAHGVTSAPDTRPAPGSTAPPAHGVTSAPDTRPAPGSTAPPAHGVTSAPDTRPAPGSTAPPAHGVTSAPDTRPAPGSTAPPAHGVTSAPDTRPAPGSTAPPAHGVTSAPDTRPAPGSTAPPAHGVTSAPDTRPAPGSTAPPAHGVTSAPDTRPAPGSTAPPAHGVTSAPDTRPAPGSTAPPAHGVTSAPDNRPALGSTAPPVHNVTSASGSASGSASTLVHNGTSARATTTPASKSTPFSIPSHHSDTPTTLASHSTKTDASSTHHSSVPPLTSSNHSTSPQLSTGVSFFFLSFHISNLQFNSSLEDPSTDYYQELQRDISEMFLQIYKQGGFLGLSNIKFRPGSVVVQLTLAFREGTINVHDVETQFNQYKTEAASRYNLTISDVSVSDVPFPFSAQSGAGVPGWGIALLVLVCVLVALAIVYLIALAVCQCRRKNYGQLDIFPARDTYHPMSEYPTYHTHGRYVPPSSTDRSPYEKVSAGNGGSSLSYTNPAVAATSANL", "experiment": "cell-based or functional assay"}
{"binder": "B1", "values": [{"measurement": "ADCC EC50, HCC827 (MUC1 medium), NK92mi/CD16A F158 effectors, w/o huIgG", "value": 11.5, "unit": "nM"}, {"measurement": "ADCC EC50, T-47D (MUC1 high), NK92mi/CD16A F158 effectors, w/o huIgG", "value": 1.3, "unit": "nM"}, {"measurement": "ADCC EC50, T-47D (MUC1 high), NK92mi/CD16A V158 effectors, w/o huIgG", "value": 0.603, "unit": "nM"}, {"measurement": "ADCC Emax, H358 (MUC1 low), NK92mi/CD16A F158 effectors, 10 mg/ml huIgG1", "value": 10.7, "unit": "%"}, {"measurement": "ADCC Emax, H358 (MUC1 low), NK92mi/CD16A F158 effectors, w/o huIgG", "value": 10.2, "unit": "%"}, {"measurement": "ADCC Emax, H358 (MUC1 low), NK92mi/CD16A V158 effectors, 10 mg/ml huIgG1", "value": 15.5, "unit": "%"}, {"measurement": "ADCC Emax, H358 (MUC1 low), NK92mi/CD16A V158 effectors, w/o huIgG", "value": 15.6, "unit": "%"}, {"measurement": "ADCC Emax, HCC827 (MUC1 medium), NK92mi/CD16A F158 effectors, 10 mg/ml huIgG1", "value": 31, "unit": "%"}, {"measurement": "ADCC Emax, HCC827 (MUC1 medium), NK92mi/CD16A F158 effectors, w/o huIgG", "value": 36.8, "unit": "%"}, {"measurement": "ADCC Emax, HCC827 (MUC1 medium), NK92mi/CD16A V158 effectors, 10 mg/ml huIgG1", "value": 26.7, "unit": "%"}, {"measurement": "ADCC Emax, HCC827 (MUC1 medium), NK92mi/CD16A V158 effectors, w/o huIgG", "value": 25, "unit": "%"}, {"measurement": "ADCC Emax, T-47D (MUC1 high), NK92mi/CD16A F158 effectors, 10 mg/ml huIgG1", "value": 25.7, "unit": "%"}, {"measurement": "ADCC Emax, T-47D (MUC1 high), NK92mi/CD16A F158 effectors, w/o huIgG", "value": 48.2, "unit": "%"}, {"measurement": "ADCC Emax, T-47D (MUC1 high), NK92mi/CD16A V158 effectors, 10 mg/ml huIgG1", "value": 19.2, "unit": "%"}, {"measurement": "ADCC Emax, T-47D (MUC1 high), NK92mi/CD16A V158 effectors, w/o huIgG", "value": 33.6, "unit": "%"}, {"measurement": "Cell lysis activity EC50, T-47D (MUC1 high) in human whole blood", "value": 1.25, "unit": "nM"}, {"measurement": "Cell lysis activity Emax, H358 (MUC1 low) in human whole blood", "value": 8.6, "unit": "%"}, {"measurement": "Cell lysis activity Emax, HCC827 (MUC1 medium) in human whole blood", "value": 14.1, "unit": "%"}, {"measurement": "Cell lysis activity Emax, T-47D (MUC1 high) in human whole blood", "value": 20.2, "unit": "%"}, {"measurement": "Phagocytosis (ADCP) EC50, T-47D, human M2 macrophages, w/o huIgG", "value": 0.05, "unit": "nM"}, {"measurement": "Phagocytosis (ADCP) Emax, T-47D, human M2 macrophages, 10 mg/ml huIgG1", "value": 17.6, "unit": "%"}, {"measurement": "Phagocytosis (ADCP) Emax, T-47D, human M2 macrophages, w/o huIgG", "value": 56.4, "unit": "%"}]}
{"binder": "B2", "values": [{"measurement": "Cell lysis activity EC50, T-47D/nanoluc in human whole blood", "value": 0.464, "unit": "nM"}, {"measurement": "Cell lysis activity Emax, T-47D/nanoluc in human whole blood", "value": 7.78, "unit": "%"}]}
